Molecular target: the molecule itself
Assay: single-molecule fluorescence imaging (TIRF) with intensity analysis; Cy5-labelled IFI16 (3 to 5 nM) supplied under constant flow (20 ul/min) to single-biotinylated lambda dsDNA anchored on a coverslip; number of molecules per cluster from particle intensity against single molecules at 1 nM; 40 mM HEPES pH 7.4, 160 mM KCl, 1 mM EDTA, 2 mM DTT, 10% glycerol, 0.1% Triton-X100, 250 ug/ml BSA; room temperature

B1: Human full-length IFI16 (interferon-inducible protein 16) (natural protein, UniProt Q16666 1-785, looked up)
chain: MGKKYKNIVLLKGLEVINDYHFRMVKSLLSNDLKLNLKMREEYDKIQIADLMEEKFRGDAGLGKLIKIFEDIPTLEDLAETLKKEKLKVKGPALSRKRKKEVDATSPAPSTSSTVKTEGAEATPGAQKRKKSTKEKAGPKGSKVSEEQTQPPSPAGAGMSTAMGRSPSPKTSLSAPPNSSSTENPKTVAKCQVTPRRNVLQKRPVIVKVLSTTKPFEYETPEMEKKIMFHATVATQTQFFHVKVLNTSLKEKFNGKKIIIISDYLEYDSLLEVNEESTVSEAGPNQTFEVPNKIINRAKETLKIDILHKQASGNIVYGVFMLHKKTVNQKTTIYEIQDDRGKMDVVGTGQCHNIPCEEGDKLQLFCFRLRKKNQMSKLISEMHSFIQIKKKTNPRNNDPKSMKLPQEQRQLPYPSEASTTFPESHLRTPQMPPTTPSSSFFTKKSEDTISKMNDFMRMQILKEGSHFPGPFMTSIGPAESHPHTPQMPPSTPSSSFLTTKSEDTISKMNDFMRMQILKEGSHFPGPFMTSIGPAESHPHTPQMPPSTPSSSFLTTLKPRLKTEPEEVSIEDSAQSDLKEVMVLNATESFVYEPKEQKKMFHATVATENEVFRVKVFNIDLKEKFTPKKIIAIANYVCRNGFLEVYPFTLVADVNADRNMEIPKGLIRSASVTPKINQLCSQTKGSFVNGVFEVHKKNVRGEFTYYEIQDNTGKMEVVVHGRLTTINCEEGDKLKLTCFELAPKSGNTGELRSVIHSHIKVIKTRKNKKDILNPDSSMETSPDFFF
modifications: DyLight-550, DyLight-650 or Cy5 fluorophore incorporated by maleimide chemistry; label to protein ratio ~1:1
notes: interferon-inducible protein 16 (IFI16), human, full length; FRET assays mixed DyLight-550 and DyLight-650 labelled protein 1:1; microscopy used Cy5-labelled protein; also called IFI16-550; IFI16-650; source: E. coli T7 express cells (NEB), as described in Morrone et al., 2014
With B1 the “stoichiometry N” value was at least 8 protomers per cluster.

Reference: paper PMC4829420, “The innate immune sensor IFI16 recognizes foreign DNA in the nucleus by scanning along the duplex” (eLife, 2015)
